The target in test [1] is T1, human α-synuclein pre-formed fibrils (Human Alpha Synuclein Pre-formed Fibrils Type II, StressMarq SPR-317) (human, UniProt P37840 1-140). Description: SPR (Biacore), antibody captured on anti-hFab CM3 chip, α-syn PFF as analyte (sample PFF-2), single-cycle kinetics, 1:1 Binding fit, 25 °C; Run2. On the procedure:
(§1) The equipment used was Biacore®. Anti-hFab (Sigma, I5260-1ML) diluted in acetate buffer (pH 5.0) was immobilized on the surface of an CM3 chip (GE Healthcare) by amine coupling. […] All procedures in association and dissociation phases were done in single-cycle kinetics. A 1:1 binding model was used for fitting, and the Biacore® T200 Evaluation software was used for the evaluation.
A general note: In SPR one partner is held on a chip, and binding of the other changes the refractive index at the surface.

Test [2] addresses T1, human α-synuclein pre-formed fibrils …. Description: SPR Biacore T200, antibody captured on Protein A chip, α-syn PFF analyte, 1:1 model. The procedure:
(§2) The equipment used was Biacore® (GE Healthcare, Model T200). Protein A (GE Healthcare, Cat: 29-1275-56) was used as a chip, 10 mM glycine-HCl pH 1.5 (GE Healthcare, Cat: BR-1003-54) was used as a regeneration buffer, and HBS-EP was used as a running buffer and an analyte dilution and sample dilution buffer. […] A capture phase was carried out at a contact time of 60 seconds and a flow rate of 30 μL/min was used for a stabilization period of 60 seconds, with the target resonance units (RU) of fibril set to 10 (theoretical). In an association phase, the association time was set to 60 seconds and a flow rate was set to 60 μL/min. In a dissociation phase, the dissociation time was set to 180 seconds, and a flow rate was set to 60 μL/min. In a regeneration phase, the flow rate was set to 30 μL/min, and the regeneration time was set to 60 seconds. A 1:1 binding model was used for fitting, and the Biacore® T200 Evaluation software (GE Healthcare) was used for the evaluation.

For test [3], the target named is monomeric human α-synuclein (Active Human Recombinant Alpha Synuclein Protein Monomer type II, StressMarq … (human, UniProt P37840 1-140)). Put plainly: SPR (Biacore T200), antibody captured on Protein A chip, α-syn monomer as analyte (Monomer-1), 25 °C; Run01; number of the software's 1:1 fit printed under a sensorgram without binding response (the filing's Table 18: No-binding). On the procedure:
The equipment used was Biacore® T200. The anti-α-syn monospecific antibody or the anti-α-syn/IGF1R bispecific antibody was diluted with 1×HBS-EPT. […] Each diluted monomer sample was injected at 60 μL/min onto the Protein A chip surface for 60 seconds, followed by washing with 1×HBS-EP buffer. The dissociation rate was evaluated for 180 seconds. All procedures in association/dissociation phases were done in single cycle kinetics. The chip surface was regenerated by injecting 10 mM glycine-HCl pH 1.5 (GE Healthcare) onto the chip surface for 60 seconds at 30 μL/min, removing residual α-syn monomer/antibody complex. A 1:1 binding model was used for fitting, and the Biacore® T200 Evaluation software was used for evaluation.

In test [4] the target is T1, human α-synuclein pre-formed fibrils …. Description: SPR Biacore, antibody captured on anti-hFab CM3 chip, α-syn PFF analyte, single-cycle kinetics, 1:1 model. The procedure: as §1
For test [5] the target is unchanged. Put plainly: sandwich ELISA, antibody coated, α-syn PFF added, 7B7-biotin detection. On the procedure:
Specifically, the antibodies were diluted with PBS by six-fold serial dilution from 400 nM to 0.009 nM. The diluted antibodies were added to a 96-well plate at 100 μL/well for coating. The plate was sealed and incubated at 4° C. for 16 hours. After washing with phosphate-buffered saline with Tween® (PBS-T; 0.05% Tween® 20) five times, the plate was blocked with 5% BSA in PBS 200 μL/well at 37° C. for 2 hours. After washing with PBS-T five times, α-syn PFF (2 μg/mL, 100 μL/well in 2% BSA in PBS) was added to the plate and incubated at 37° C. for 2 hours. After washing with PBS-T five times, 7B7-biotin antibody (anti-α-syn antibody; 1 μg/mL/100 μL/well, in 2% BSA in PBS) was added and incubated at 37° C. for 2 hours. After washing with PBS-T five times, the plate was incubated with horseradish peroxidase (HRP)-bound streptavidin in PBS with 2% BSA (1:5000, 1 mg/mL stock, 20 ng/well, 100 μL/well) at 37° C. for 1 hour. After washing with PBS-T five times, 3,3′,5,5′-tetramethylbenzidine (TMB) (100 μL/well) was added and incubated at room temperature for 5 minutes. The reaction was stopped by the addition of 0.5 N H₂SO₄ (50 μL/well). Optical absorbance at 450 nm was measured by using a plate reader, with absorbance at 650 nm subtracted from the reading.

Test [6] has the same target. Put plainly: SPR Biacore T200, antibody captured on Protein A chip, α-syn PFF analyte, 1:1 model. The procedure: as §2
The source holds these as a separate data set.

B1: hu1E4(V1_VL1) x Grabody B (bispecific antibody, human IgG1, kappa)
heavy 1: not shown
heavy 2: not shown
light: DIVMTQTPLSLSVTPGQPASISCRSSQSLVHSNGNTYLHWYLQKPGQSPQLLIYKVSNRFSGVPDRFSGSGSGTDFTLKISRVEAEDVGVYYCSQSTHVPRTFGQGTKLEIKRTVAAPSVFIFPPSDEQLKSGTASVVCLLNNFYPREAKVQWKVDNALQSGNSQESVTEQDSKDSTYSLSSTLTLSKADYEKHKVYACEVTHQGLSSPVTKSFNRGEC
notes: Anti-α-syn/IGF1R bispecific; hole heavy chain (M428L) carries the anti-IGF1R scFv Grabody B at its C-terminus through a (G4S)3 linker; knob heavy chain (M428L) without scFv; also called hu1E4(V1 VL1) × Grabody B; 1E4(Ver.1_VL1) × Grabody B
Take B1: the dissociation rate constant (koff) in test [1] was 0.000743 s⁻¹; in test [2] it was 0.000322 s⁻¹; in test [3], 2.23 s⁻¹; in test [4], 0.000706 s⁻¹; in test [6], 0.000423 s⁻¹. Also, the kon worked out at 1.83e+07 M⁻¹ s⁻¹ in test [1]; 1.14e+07 M⁻¹ s⁻¹ in test [2]; 3.57e+07 M⁻¹ s⁻¹ in test [3]; 1.87e+07 M⁻¹ s⁻¹ in test [4]; 1.45e+07 M⁻¹ s⁻¹ in test [6]. For the same molecule, the equilibrium dissociation constant (Kd) in test [2] was 28.1 pM; in test [4], 37.9 pM; in test [6] it was 29.3 pM. The EC50 in test [5] is 334 pM.

In general, koff refers to a measure of how fast the partners let go of each other. In general, kon refers to the rate constant with which the complex forms. The term Kd denotes a measure of binding affinity in units of concentration. A word on the EC50: it is the concentration needed to bring the measured effect to its halfway point. A low value points to an effect from little substance.

The values above are taken from patent publication US20220380446A1 (ABL BIO, published 2022).
